From US6531296B1, “Nuclear tyrosine kinase Rak” (The University of North Carolina at Chapel Hill, priority 1995, dated 2003) come the findings set out here.

Where two headings read alike, the source gives them in different places.

One test deals with T1, Cdk5 (Homo sapiens, UniProt Q00535).
T1 construct: endogenous in cells; host or cells: BT474
Put plainly: Affinity precipitation from BT474 lysate with Rak N-terminal GST fusion protein. Type of test: binding. The conditions noted are these: BT474 cell lysate. As to the method:
(§1) For affinity precipitations, 250 ug of cell lysate was pre-cleared once with 25 ul of glutathione-sepharose beads (Pharmacia) then once with 25 ul of the same beads containing 2 ug/ml Glutathione S-transferase. The lysate was then incubated with 25 ul of GST-RakNT bound to glutathione-sepharose, in a total volume of 500 ul of NP-40 lysis buffer, for 3 hours at 4° C. The beads were then washed three times in NP-40 Lysis Buffer and the bound proteins were eluted with SDS-PAGE sample loading buffer. pRb binding was assessed by Western blot analysis with the G3-245 antibody at 1 ug/ml.
(§2) Because the N-terminus is frequently responsible for protein-protein interactions in Src-related kinases, the proteins that bind to this region were characterized. The N-terminal 110 amino acids of Rak were expressed as a bacterial fusion protein with Glutathione S-transferase, and were incubated with cell lysates from BT474 breast cancer cells. In this assay, binding of RAK to the cyclin-dependent kinases Cdc2 and Cdk4 was detected, but binding to Cdk5, Cdk6, or Cdk7 was not detected (data not shown).

Another test concerns the target T2, Cdk4 (Homo sapiens, UniProt P11802).
T2 construct: endogenous in cells; host or cells: BT474
Described as above. Type of test: binding. The settings on record: BT474 cell lysate. As to the method: as §1, §2

For a further test, the target named is T3, Cdk6 (Homo sapiens, UniProt Q00534).
T3 construct: endogenous in cells; host or cells: BT474
The description is as above. It counts as binding. The conditions noted are these: BT474 cell lysate. As to the method: as §1, §2

The next test addresses T4, Cdk7 (Homo sapiens, UniProt P50613).
T4 construct: endogenous in cells; host or cells: BT474
Described as above. The conditions noted are these: BT474 cell lysate. Type of test: binding. How it is done:
as §1, §2

Test [1] has as its target T5, CDC2 (Homo sapiens, UniProt P06493). The test is described as above. It counts as binding. More on the design: endogenous in cells; host or cells: BT474. The conditions noted are these: BT474 cell lysate. How it is done: as §1, §2
Another test concerns the target T6, pRb (Homo sapiens, UniProt P06400).
T6 construct: incubated with cell lysates from SK-BR-3 breast cancer cells; endogenous in cells; host or cells: SK-BR-3
T6 sequence (P06400 1-928): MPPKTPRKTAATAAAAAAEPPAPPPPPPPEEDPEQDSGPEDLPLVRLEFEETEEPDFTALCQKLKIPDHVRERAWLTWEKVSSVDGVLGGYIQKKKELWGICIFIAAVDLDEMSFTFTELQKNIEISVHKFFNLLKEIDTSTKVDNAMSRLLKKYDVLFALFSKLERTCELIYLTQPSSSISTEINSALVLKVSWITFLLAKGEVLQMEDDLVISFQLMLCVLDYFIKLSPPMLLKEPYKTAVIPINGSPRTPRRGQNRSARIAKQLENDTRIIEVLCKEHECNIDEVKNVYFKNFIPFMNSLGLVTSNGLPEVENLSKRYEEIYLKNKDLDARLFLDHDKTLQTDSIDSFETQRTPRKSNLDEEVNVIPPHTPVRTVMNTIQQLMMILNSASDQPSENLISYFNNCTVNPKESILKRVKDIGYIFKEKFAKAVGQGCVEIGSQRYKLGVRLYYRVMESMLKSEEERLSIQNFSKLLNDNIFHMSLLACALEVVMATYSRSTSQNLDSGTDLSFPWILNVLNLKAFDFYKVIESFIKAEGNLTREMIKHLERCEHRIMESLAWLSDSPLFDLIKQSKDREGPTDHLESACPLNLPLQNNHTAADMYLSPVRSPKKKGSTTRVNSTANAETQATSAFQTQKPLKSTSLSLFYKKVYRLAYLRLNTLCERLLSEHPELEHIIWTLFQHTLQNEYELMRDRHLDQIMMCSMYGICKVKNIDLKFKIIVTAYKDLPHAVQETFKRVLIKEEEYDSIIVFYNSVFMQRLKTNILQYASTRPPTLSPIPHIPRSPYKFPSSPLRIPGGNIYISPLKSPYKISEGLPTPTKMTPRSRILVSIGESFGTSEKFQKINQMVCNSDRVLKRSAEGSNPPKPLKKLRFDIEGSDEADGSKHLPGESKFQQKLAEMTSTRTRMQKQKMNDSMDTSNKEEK
Put plainly: Affinity precipitation from SK-BR-3 lysate with GST-RakNT, Western blot for pRb. Type of test: binding. The conditions noted are these: SK-BR-3 cell lysate, GST alone as control. As to the method: Affinity Precipitations. DNA fragments encoding the amino terminal region of Rak were prepared using the polymerase chain reaction with Pyrococcus furiosus DNA polymerase (Stratagene), and cloned into the pGEX-4T plasmid (Pharmacia). Rb fusion proteins encoding amino acids 379-928 (RbABC, containing the A/B pocket region and the COOH-terminal domain) and 780-928 (RbC for COOH terminal domain only), were prepared similarly. The GST fusion proteins were induced and purified according to the manufacturer's instructions, and were analyzed by SDS-PAGE to ensure that an equal amount of protein was used for the affinity precipitation procedure.
For affinity precipitations, 250 ug of cell lysate was pre-cleared once with 25 ul of glutathione-sepharose beads (Pharmacia) then once with 25 ul of the same beads containing 2 ug/ml Glutathione S-transferase. […]
Results and Discussion: To test whether Rak and pRb physically interact, the first 110 amino acids of Rak (first 110 amino acids of SEQ ID NO:2), where the predicted interacting peptides reside were prepared as a bacterial fusion protein with the Glutathione-S transferase gene (Rak-NT:GST), and incubated with cell lysates from SK-BR-3 breast cancer cells, and bound proteins were analyzed by Western blotting. […]
A general note: A western blot detects proteins with antibodies after separation by electrophoresis.

Test [2] deals with T5, CDC2. Put plainly: In vitro kinase assay of immunoprecipitated CDC2 with Histone H1 as exogenous substrate. Further details: incubated with immunoprecipitated CDC2; endogenous in cells. Type of test: biochemical. As to the method:
The 110 N-terminal amino acids of Rak were produced as a GST fusion protein (RAKNT:GST) and incubated with immunoprecipitated CDC2, and subjected to an in vitro kinase assay with Histone H1 added as an exogenous substrate, and analyzed by SDS-PAGE. […] This fusion protein was incubated with immunoprecipitated CDC2, and subjected to an in vitro kinase assay with Histone H1 added as an exogenous substrate, and analyzed by SDS-PAGE.
The CDC2 binding domain of RAK appears to be between amino acids 86-110. Since the binding of RAK to CDC2 is exceptionally strong, the biological function of this interaction was explored.

The target in the next test is T7, GAP-associated p62 (Homo sapiens, UniProt Q07666).
T7 construct: incubated with cell lysates from SK-BR-3 breast cancer cells; endogenous in cells; host or cells: SK-BR-3
Put plainly: Affinity precipitation from SK-BR-3 lysate with GST-RakNT. Type of test: binding. The settings on record: SK-BR-3 cell lysate. How it is done: as §1
(§3) Results and Discussion: To test whether Rak and pRb physically interact, the first 110 amino acids of Rak (first 110 amino acids of SEQ ID NO:2), where the predicted interacting peptides reside were prepared as a bacterial fusion protein with the Glutathione-S transferase gene (Rak-NT:GST), and incubated with cell lysates from SK-BR-3 breast cancer cells, and bound proteins were analyzed by Western blotting. Glutathione-S transferase alone was used as the control. […] In contrast, binding of Rak to proteins that interact with the SH3 domains of other members of the Src family, such as GAP-associated p62 or Shc, was not found (data not shown).

For the next test, the system named is Shc. Described as above. It counts as binding, human. The conditions noted are these: SK-BR-3 cell lysate. As to the method: as §1, §3
Sequence of Shc (P29353 156-583 limits assumed): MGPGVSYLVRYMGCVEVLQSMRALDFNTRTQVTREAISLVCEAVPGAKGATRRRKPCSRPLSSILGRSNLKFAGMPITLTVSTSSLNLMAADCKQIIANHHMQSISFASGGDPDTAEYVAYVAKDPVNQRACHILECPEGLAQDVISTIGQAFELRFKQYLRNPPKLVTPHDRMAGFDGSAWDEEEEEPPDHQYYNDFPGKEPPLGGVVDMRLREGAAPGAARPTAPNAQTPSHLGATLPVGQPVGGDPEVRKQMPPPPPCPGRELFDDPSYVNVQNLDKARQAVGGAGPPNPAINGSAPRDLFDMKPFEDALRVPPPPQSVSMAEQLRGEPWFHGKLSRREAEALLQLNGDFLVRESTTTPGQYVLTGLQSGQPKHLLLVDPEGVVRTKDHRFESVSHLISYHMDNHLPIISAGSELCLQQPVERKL

T5 sequence (P06493 whole entry): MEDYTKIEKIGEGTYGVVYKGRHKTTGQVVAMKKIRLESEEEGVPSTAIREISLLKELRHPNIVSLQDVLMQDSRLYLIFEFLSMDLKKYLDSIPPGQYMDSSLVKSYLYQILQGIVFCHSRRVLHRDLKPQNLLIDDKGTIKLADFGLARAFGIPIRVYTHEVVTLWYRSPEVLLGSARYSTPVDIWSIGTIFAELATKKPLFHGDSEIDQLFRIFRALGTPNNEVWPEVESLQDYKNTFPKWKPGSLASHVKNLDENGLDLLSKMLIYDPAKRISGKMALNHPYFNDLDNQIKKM
T2 sequence (P11802 whole entry): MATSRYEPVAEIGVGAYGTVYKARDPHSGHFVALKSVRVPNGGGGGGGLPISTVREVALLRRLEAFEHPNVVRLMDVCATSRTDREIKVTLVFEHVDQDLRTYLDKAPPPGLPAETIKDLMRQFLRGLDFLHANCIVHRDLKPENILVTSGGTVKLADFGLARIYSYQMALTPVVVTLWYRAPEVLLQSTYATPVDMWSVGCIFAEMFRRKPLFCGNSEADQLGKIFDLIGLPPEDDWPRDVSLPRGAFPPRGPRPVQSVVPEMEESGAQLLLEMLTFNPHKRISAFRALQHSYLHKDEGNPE
T7 sequence (Q07666 whole entry): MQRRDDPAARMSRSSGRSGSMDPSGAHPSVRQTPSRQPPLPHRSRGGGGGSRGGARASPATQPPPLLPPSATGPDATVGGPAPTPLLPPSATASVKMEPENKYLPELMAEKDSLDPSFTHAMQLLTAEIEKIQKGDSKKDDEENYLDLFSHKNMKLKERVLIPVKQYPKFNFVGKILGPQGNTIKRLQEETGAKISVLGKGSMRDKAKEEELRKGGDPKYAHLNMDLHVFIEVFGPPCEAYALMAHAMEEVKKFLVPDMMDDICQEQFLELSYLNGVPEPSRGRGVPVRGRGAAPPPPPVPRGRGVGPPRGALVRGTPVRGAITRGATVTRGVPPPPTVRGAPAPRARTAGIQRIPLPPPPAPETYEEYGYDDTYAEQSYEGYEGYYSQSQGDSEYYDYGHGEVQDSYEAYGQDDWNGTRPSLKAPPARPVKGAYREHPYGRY
T1 sequence (Q00535 whole entry): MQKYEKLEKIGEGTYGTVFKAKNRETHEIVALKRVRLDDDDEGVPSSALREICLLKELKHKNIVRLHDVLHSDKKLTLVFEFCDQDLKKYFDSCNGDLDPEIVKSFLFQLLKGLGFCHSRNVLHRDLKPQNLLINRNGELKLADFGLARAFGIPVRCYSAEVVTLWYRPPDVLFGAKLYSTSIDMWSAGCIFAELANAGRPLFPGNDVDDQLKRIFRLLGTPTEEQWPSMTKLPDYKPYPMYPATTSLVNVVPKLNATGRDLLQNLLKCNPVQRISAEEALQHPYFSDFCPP
T3 sequence (Q00534 whole entry): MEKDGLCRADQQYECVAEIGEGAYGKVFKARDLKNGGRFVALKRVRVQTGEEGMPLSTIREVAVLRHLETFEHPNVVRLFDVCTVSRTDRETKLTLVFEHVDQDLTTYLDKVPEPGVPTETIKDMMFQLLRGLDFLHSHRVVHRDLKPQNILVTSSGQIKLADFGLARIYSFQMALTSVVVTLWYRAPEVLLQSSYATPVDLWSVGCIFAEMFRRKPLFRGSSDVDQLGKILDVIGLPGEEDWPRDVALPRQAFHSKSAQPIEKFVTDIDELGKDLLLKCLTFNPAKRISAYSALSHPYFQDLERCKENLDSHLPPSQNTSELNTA
T4 sequence (P50613 whole entry): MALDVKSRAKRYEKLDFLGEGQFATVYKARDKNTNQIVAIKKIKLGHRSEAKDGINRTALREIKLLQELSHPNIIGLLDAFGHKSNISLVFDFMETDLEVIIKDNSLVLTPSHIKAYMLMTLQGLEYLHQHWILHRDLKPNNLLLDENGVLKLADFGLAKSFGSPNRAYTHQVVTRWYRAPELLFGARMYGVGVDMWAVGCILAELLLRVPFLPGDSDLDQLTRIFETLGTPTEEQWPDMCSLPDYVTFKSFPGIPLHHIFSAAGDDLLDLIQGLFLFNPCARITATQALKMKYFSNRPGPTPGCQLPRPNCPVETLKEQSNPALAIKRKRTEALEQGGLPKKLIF

B1: Rak-NT:GST: first 110 amino acids of Rak (SEQ ID NO:2) as bacterial fusion protein with Glutathione-S transferase (protein)
chain: MSNICQRLWEYLEPYLPCLSTEADKSTVIENPGALCSPQSQRHGHYFVALFDYQARTAEDLSFRAGDKLQVLDTLHEGWWFARHLEKRRDGSSQQLQGYIPSNYVAEDRS
modifications: left off: a dimerising Fc or GST; large carriers; small tags and cut ends
As for B1, the “binding to Cdk5” value in the test with Cdk5 is recorded as “not detected”. Besides, the “binding to Cdk4” value with Cdk4 is recorded as “detected”. Moreover, the “binding to Cdk6” value with Cdk6 was “not detected”. Also, the “binding to Cdk7” value with Cdk7 is “not detected”. Further, the “binding to Cdc2” value with CDC2 [1] is “detected”. The pRb binding entry in the test with pRb is on record as “bound”. For the same molecule, the “inhibition of CDC2 histone H1 phosphorylation activity” value with CDC2 [2] (listed as RAK-SH3:GST) is recorded as “able to block CDC2 histone H1 activity”; with CDC2 [2] (listed as RakNT fusion protein) it was “reduction of CDC2 histone H1 phosphorylation activity”. For the same molecule, in the test with GAP-associated p62, the “binding to GAP-associated p62” value was “not found”. The “binding to Shc” value with Shc is reported as “not found”.

B2: RAKΔ86:GST: RakNT GST fusion protein with amino acids 86-110 (CDC2 binding site) deleted (protein, UniProt P42685 1-85, looked up, fragment)
chain: MSNICQRLWEYLEPYLPCLSTEADKSTVIENPGALCSPQSQRHGHYFVALFDYQARTAEDLSFRAGDKLQVLDTLHEGWWFARHL
modifications: GST fusion
As for B2, the “binding to Cdk4” value with Cdk4 is “did not affect binding”. Further, in the test with CDC2 [2], the “inhibition of CDC2 histone H1 phosphorylation activity” value is given as “greatly diminished CDC2 inhibitory activity”.
